Substrate in this series: CN(Cc1cnc2nc(N)nc(N)c2n1)c1ccc(C(=O)N[C@@H](CCC(=O)O)C(=O)O)cc1
As to the kind of experiment: TP_TRANSPORTER: uptake (vesicle) in membrane vesicle from ABCG2-expressing HEK-293 cells. In kind it is functional, cell membranes, HEK293.

B1: Broad substrate specificity ATP-binding cassette transporter ABCG2 (Homo sapiens) (protein)
chain: MSSSNVEVFIPVSQGNTNGFPATASNDLKAFTEGAVLSFHNICYRVKLKSGFLPCRKPVEKEILSNINGIMKPGLNAILGPTGGGKSSLLDVLAARKDPSGLSGDVLINGAPRPANFKCNSGYVVQDDVVMGTLTVRENLQFSAALRLATTMTNHEKNERINRVIQELGLDKVADSKVGTQFIRGVSGGERKRTSIGMELITDPSILFLDEPTTGLDSSTANAVLLLLKRMSKQGRTIIFSIHQPRYSIFKLFDSLTLLASGRLMFHGPAQEALGYFESAGYHCEAYNNPADFFLDIINGDSTAVALNREEDFKATEIIEPSKQDKPLIEKLAEIYVNSSFYKETKAELHQLSGGEKKKKITVFKEISYTTSFCHQLRWVSKRSFKNLLGNPQASIAQIIVTVVLGLVIGAIYFGLKNDSTGIQNRAGVLFFLTTNQCFSSVSAVELFVVEKKLFIHEYISGYYRVSSYFLGKLLSDLLPMRMLPSIIFTCIVYFMLGLKPKADAFFVMMFTLMMVAYSASSMALAIAAGQSVVSVATLLMTICFVFMMIFSGLLVNLTTIASWLSWLQYFSIPRYGFTALQHNEFLGQNFCPGLNATGNNPCNYATCTGEEYLVKQGIDLSPWGLWKNHVALACMIVIFLTIAYLKLLFLKKYS
On to B1, for which the Km (in general, the concentration of substrate that gives half-maximal velocity) came to 5.7 mM.

(Values after ChEMBL document CHEMBL2073902, “A functional study on polymorphism of the ATP-binding cassette transporter ABCG2: critical role of arginine-482 in methotrexate transport” (Biochem J, 2003).)
